The results in this text go back to PMC4262734.

In the assay the target is HA-Cdk2 (UniProt P24941). As to the kind of experiment: co-IP; HeLa cells co-overexpressing wild-type or mutant Flag-p27Xic1 with HA-Cdk2; binding quantified against wild type (mean ± SEM).

Regarding Flag-p27Xic1 T68E (natural protein), the reduction of binding against wild-type p27Xic1 is 50%. As for Flag-p27Xic1 T68A (natural protein), the increase of binding against wild-type p27Xic1 is 140%.
